# Measured values: patent US20050260697
# How the values were obtained:
# [1] = target: human cardiac Troponin-I3 (UniProt P19429)
# [2] = target: human cardiac Troponin-T2 (UniProt P45379)
# Chain of human cardiac Troponin-I3 (P19429 whole entry, looked up): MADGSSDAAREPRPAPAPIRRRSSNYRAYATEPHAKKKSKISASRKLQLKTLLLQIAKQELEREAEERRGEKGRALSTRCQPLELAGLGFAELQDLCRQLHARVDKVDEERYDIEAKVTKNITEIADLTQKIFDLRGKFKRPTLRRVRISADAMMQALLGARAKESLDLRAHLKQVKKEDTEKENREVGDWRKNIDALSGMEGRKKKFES
substance,measurement,setting,value
calpain-2,"in vitro protease digestion, breakdown products on gels",[1],"human cardiac Troponin-T2 and Troponin-13 were cleaved by calpain-2 and caspase-3 proteases, producing unique breakdown products"
same,stated: cleaves (breakdown bands on a gel),[1],the Tn-I3 (24 kDa) band stays in both Calp-2 lanes (rising amount); arrows A and B mark two faint products below it at the higher-amount lane
same,"in vitro protease digestion, breakdown products on gels",[2],"human cardiac Troponin-T2 and Troponin-13 were cleaved by calpain-2 and caspase-3 proteases, producing unique breakdown products"
same,stated: cleaves (breakdown bands on a gel),[2],"in the two Calpain-2 lanes (rising amount) the Troponin-T2 band at the 30 kDa mark fades and a band b appears between the 15 and 10 kDa marks; arrowheads a, b and c mark products between 15 and 10 kDa beside the higher-amount lane; none of these is in the untreated lane"
